One block for each binder: values may come before it.
Key:
[1] = target: T1, Y17A; test: flow cytometry, HEK293 transfected with hCCR8 Y17A with C-terminal FLAG; sheet prints [huCCR8]=0.02 ug/ml
T1 construct: single alanine mutant of hCCR8; also called hCCR8 Y17A
T1 receptor chain: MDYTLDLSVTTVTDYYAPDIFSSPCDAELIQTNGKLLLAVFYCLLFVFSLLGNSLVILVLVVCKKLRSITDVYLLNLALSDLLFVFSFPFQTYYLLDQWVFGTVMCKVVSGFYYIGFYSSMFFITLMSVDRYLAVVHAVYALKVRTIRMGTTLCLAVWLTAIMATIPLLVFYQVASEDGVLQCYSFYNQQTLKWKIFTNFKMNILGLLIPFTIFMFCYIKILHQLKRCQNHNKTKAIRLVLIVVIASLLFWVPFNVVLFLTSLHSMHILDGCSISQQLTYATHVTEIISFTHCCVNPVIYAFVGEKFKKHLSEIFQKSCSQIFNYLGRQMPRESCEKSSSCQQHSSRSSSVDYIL
Description: (§1) FIGS. 16A-16B depict the epitope maps for hu.Ab5.H13L1 (FIG. 16A) and hu.Ab4.H12L3 (FIG. 16B) mAbs.
(§2) To epitope map fucosylated hu.Ab5.H13L1, the binding to alanine point mutations in human CCR8 was analyzed by flow cytometry.

[2] = target: T2, hCCR8 Y3A (human, UniProt P51685 1-355); test: flow cytometry, HEK293 transfected with hCCR8 Y3A with C-terminal FLAG
T2 construct: alanine point mutant on transfected HEK 293 cells
Description: as §1, §2

[3] = target: T3, hCCR8 D6A (human, UniProt P51685 1-355); test: flow cytometry, HEK293 transfected with hCCR8 D6A with C-terminal FLAG
T3 construct: alanine point mutant on transfected HEK 293 cells

[4] = target: T4, V12A; test: flow cytometry, HEK293 transfected with hCCR8 V12A with C-terminal FLAG; sheet prints [huCCR8]=0.02 ug/ml
T4 construct: single alanine mutant of hCCR8; also called hCCR8 V12A
T4 receptor chain: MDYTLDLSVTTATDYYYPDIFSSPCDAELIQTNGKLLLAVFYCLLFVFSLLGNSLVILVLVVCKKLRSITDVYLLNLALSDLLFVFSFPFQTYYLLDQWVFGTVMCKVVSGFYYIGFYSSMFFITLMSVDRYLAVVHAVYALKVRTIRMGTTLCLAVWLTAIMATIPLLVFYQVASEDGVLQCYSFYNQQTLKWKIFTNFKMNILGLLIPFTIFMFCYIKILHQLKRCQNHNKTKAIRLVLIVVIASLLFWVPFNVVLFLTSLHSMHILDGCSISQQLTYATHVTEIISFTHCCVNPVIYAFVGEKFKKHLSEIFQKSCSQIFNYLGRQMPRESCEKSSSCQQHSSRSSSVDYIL

[5] = target: T5, T13A; test: flow cytometry, HEK293 transfected with hCCR8 T13A with C-terminal FLAG; sheet prints [huCCR8]=0.02 ug/ml
T5 construct: single alanine mutant of hCCR8; also called hCCR8 T13A
T5 receptor chain: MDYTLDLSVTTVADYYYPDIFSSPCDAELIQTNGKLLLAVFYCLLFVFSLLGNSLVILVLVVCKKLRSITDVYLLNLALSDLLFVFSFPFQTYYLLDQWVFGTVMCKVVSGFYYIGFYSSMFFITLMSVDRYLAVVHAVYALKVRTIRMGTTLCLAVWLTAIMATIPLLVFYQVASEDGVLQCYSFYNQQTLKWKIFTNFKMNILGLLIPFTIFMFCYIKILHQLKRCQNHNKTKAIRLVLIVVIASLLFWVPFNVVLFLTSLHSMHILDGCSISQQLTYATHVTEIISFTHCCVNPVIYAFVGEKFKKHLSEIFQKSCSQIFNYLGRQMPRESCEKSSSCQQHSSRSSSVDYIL
Description: as §1, §2

[6] = target: T6, V9A; test: flow cytometry, HEK293 transfected with hCCR8 V9A with C-terminal FLAG; sheet prints [huCCR8]=0.02 ug/ml
T6 construct: single alanine mutant of hCCR8; also called hCCR8 V9A
T6 receptor chain: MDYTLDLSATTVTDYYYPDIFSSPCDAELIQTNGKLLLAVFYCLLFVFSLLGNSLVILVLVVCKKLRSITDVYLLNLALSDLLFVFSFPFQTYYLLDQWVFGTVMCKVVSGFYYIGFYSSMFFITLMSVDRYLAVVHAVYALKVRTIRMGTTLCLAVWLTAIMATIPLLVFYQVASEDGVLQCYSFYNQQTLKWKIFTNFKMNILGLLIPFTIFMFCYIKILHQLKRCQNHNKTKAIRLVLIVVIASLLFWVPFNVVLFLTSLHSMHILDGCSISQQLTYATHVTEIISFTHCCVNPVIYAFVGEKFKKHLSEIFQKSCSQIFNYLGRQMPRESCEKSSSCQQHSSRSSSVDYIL

[7] = target: T7, Y15A; test: flow cytometry, HEK293 transfected with hCCR8 Y15A with C-terminal FLAG; sheet prints [huCCR8]=0.02 ug/ml
T7 construct: single alanine mutant of hCCR8; also called hCCR8 Y15A
T7 receptor chain: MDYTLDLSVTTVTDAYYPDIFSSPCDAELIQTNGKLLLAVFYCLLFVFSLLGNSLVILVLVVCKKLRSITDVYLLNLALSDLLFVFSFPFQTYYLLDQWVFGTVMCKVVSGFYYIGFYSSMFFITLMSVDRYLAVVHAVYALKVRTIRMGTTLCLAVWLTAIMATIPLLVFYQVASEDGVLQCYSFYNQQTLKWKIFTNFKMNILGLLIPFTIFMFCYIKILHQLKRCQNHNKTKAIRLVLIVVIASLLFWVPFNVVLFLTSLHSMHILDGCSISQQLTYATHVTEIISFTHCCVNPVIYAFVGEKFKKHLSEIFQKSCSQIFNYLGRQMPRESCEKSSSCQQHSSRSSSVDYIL

[8] = target: human CCR8 (human, UniProt P51685 1-355); test: cell-based or functional assay
[9] = target: T8, human CCR8.CCR5 chimera ECL1 (human, UniProt P51681 86-99, limits assumed); test: flow cytometry, 293 cells transfected with the CCR8.CCR5 chimera ECL1 with C-terminal FLAG
T8 construct: domain: ECL1; on transfected 293 cells; also called ECL1 chimera
Description: To epitope map fucosylated hu.Ab4.H12L3, the binding to chimeric forms of human CCR8 was analyzed by flow cytometry.

binding result [1]: binds
binding result [2]: no binding (tested: 0.02 ug/ml)
binding result [3]: no binding (tested: 0.02 ug/ml)
binding result [4]: binds
binding result [5]: binds
binding result [6]: binds
binding result [7]: binds
B1: hu.Ab5.H13L1 (antibody, human IgG1, kappa)
heavy: not shown
light: DIQVTQSPSSLSASVGDRVTITCQASENIANALAWYQQKPGKPPKFLIYGASNLASGVPSRFSGSGSGTDFTFTISSLQPEDIATYYCQQAYYGNSFVEGTFGGGTKVEIKRTVAAPSVFIFPPSDEQLKSGTASVVCLLNNFYPREAKVQWKVDNALQSGNSQESVTEQDSKDSTYSLSSTLTLSKADYEKHKVYACEVTHQGLSSPVTKSFNRGEC
notes: fucosylated human IgG1; also called Ab5 variant

CCL1 blocking potency IC50, Ca2+ influx [8]: 0.0579 µM
B2: hu.Ab4.H1L1 (antibody, human IgG1, kappa)
heavy: not shown
light: DYQMTQSPSSLSASVGDRVTITCQASQSISSYLSWYQQKPGKRPKLLIYKASTLASGVPSRFSGSGSGTDFTLTISSLQPEDFATYYCQQGYTSSNIDNIFGGGTKVEIKRTVAAPSVFIFPPSDEQLKSGTASVVCLLNNFYPREAKVQWKVDNALQSGNSQESVTEQDSKDSTYSLSSTLTLSKADYEKHKVYACEVTHQGLSSPVTKSFNRGEC
notes: also called hu.Ab4.H1Ll

binding result [9]: no binding
B3: hu.Ab4.H12L3 (antibody, human IgG1, kappa)
heavy: not shown
light: DYQMTQSPSSLSASVGDRVTITCQASQSISSYLSWYQQKPGKAPKLLIYKASTLASGVPSRFSGSGSGTDFTLTISSLQPEDFATYYCQQGYTSSNIDNIFGGGTKVEIKRTVAAPSVFIFPPSDEQLKSGTASVVCLLNNFYPREAKVQWKVDNALQSGNSQESVTEQDSKDSTYSLSSTLTLSKADYEKHKVYACEVTHQGLSSPVTKSFNRGEC
notes: fucosylated human IgG1; also called huCCR8-Ab4.H12L3.hIgG1; Ab4 variant

From patent US20230049152A1 (Genentech, published 2023)
